To fix the notation:
B1: Ab137 (antibody, human IgG4 S228P, kappa, V domains shown)
VH: EVQLVESGGGLVQPGGSLRLSCAASGFTFSSYGMSWVRQAPGKGLELVASFTGSGGTYYPDSVKGRFTISRDNAKNSLYLQMNSLRAEDTAVYYCARDLLIRFLEWGHYYGMDVWGQGTTVTVSS
VL: DIVMTQSPLSLPVTPGEPASISCRSSQSLLHSSGHNFLHWYLQKPGQSPQLLIYEVSNRVSGVPDRFSGSGSGTDFTLKISRVEAEDVGVYYCMQQTQYPPTFGGGTKVEIKR
B2: Ab138 (antibody, human IgG4 S228P, kappa, V domains shown)
VH: EVQLVESGGGLVQPGGSLRLSCAASGFTFTSYGMSWVRQAPGKGLELVASITGSKGETYYPDSVKGRFTISRDNAKNSLYLQMNSLRAEDTAVYYCARDLLVRFLEWSHYYGMDVWGQGTTVTVSS
VL: B1 VL with V56T, V60A, S61P, V63I, M94Q, Q96A, Y99F, P101R, T102P
B3: Ab128 (antibody, human IgG4 S228P, kappa, V domains shown)
VH: EVQLVESGGGLVQPGGSLRLSCTASGFTLSSYSMDWVRQAPGKGLEWVSYITGSGDTTYYADSVKGRFTISRDNAKNTLYLQMNSLRAEDTAVYYCARGFGWISGWAEDYFDYWGQGTLVTVSS
VL: DIQMTQSPSSLSASVGDRVTITCQASQSVYSYLNWYQQKPGKAPKLLIYGASRLEGGVPSRFSGSGSGTDFTFTISSLQPEDIATYYCQQHSTDQRTFGGGTKVEIKR
B4: Ab112 (antibody, human IgG4 S228P, kappa, V domains shown)
VH: QVQLVQSGAEVKKPGASVKVSCKVSGGTFGIYAIHWVRQAPGKGLEWMGGTIPVFGTAIYAQKFQGRVTMTEDTSTDTAYMELSSLKSEDTAVYYCASLTGIAAAGTHPARGGMDVWGQGTTVTVSS
VL: DIQMTQSPSSVSASVGDRVTITCRASPSISSYLAWYQQKPGKAPKLLIYAASRLQSGVPSRFSGSGSGTDFTLTISSLQPEDFANYYCQEYLSFPLTFGGGTKVEIKR
B5: Ab123 (antibody, human IgG4 S228P, kappa, V domains shown)
VH: EVQLVESGGGLVQPGGSLRLSCAASGFTFSKYDMSWVRQAPGKGLELVASISSSGGTRYYPDSVKGRFTISRDNAKNSLYLQMNSLRAEDTAVYYCAKDLWVASPGYGMDVWGQGTTVTVSS
VL: B1 VL with F37Y, E55L, V56G, N58I, V60A, S61P, Q96A, T97L, Q98L, Y99N
B6: Ab141 (antibody, human IgG4 S228P, kappa, V domains shown)
VH: B1 VH with T57A, G107S
VL: B1 VL with P101G
B7: Ab102 Fab (Fab, V domains shown)
VH: B2 VH with K55G
VL: DIVMTQSPLSLPVTPGEPASISCRSSQSLLHSSGHNFLHWYLQKPGQSPQLLIYETSNRAPGIPDRFSGSGSGTDFTLKISRVEAEDVGVYYCMQATQFPRPFGGGTKVEIK
B8: Ab130 Fab (Fab, V domains shown)
VH: B2 VH with K55G
VL: B7 VL with M94Q
notes: Fab of Ab130
B9: Ab112 Fab (Fab, V domains shown)
VH: B4 VH
VL: DIQMTQSPSSVSASVGDRVTITCRASPSISSYLAWYQQKPGKAPKLLIYAASRLQSGVPSRFSGSGSGTDFTLTISSLQPEDFANYYCQEYLSFPLTFGGGTKVEIK
notes: Fab of Ab112; also called Ab112 Fab fragment
B10: Fab fragment of Ab109 (Fab, V domains shown)
VH: B1 VH with G107S
VL: B7 VL with T56V, A60V, P61S, I63V, A96Q, F99Y, R101P, P102T
notes: Fab of Ab109 (molecular weight 49.25 kDa); also called Ab109 Fab
B11: Ab105 Fab (Fab, V domains shown)
VH: B1 VH with F27S, T28A, F51I, T52G, S54T, G56A, I101V
VL: DIVMTQSPLSLPVTPGEPASISCRSSQSLLHSSGYNFLHWYLQKPGQSPQLLIYAASSRAPGIPDRFSGSGSGTDFTLKISRVEAEDVGVYYCMHGGQGPTFGGGTKVEIK
notes: Fab of Ab105
B12: Ab141 Fab (Fab, V domains shown)
VH: B1 VH with T57A, G107S
VL: B7 VL with T56V, A60V, P61S, I63V, A96Q, F99Y, R101G, P102T
notes: Fab of Ab141
B13: Ab133 Fab (Fab, V domains shown)
VH: B1 VH with T57A, G107S
VL: B7 VL with T56V, A60V, P61S, I63V, M94Q, A96Q, F99Y, R101G, P102T
notes: Fab of Ab133
B14: Ab132 Fab (Fab, V domains shown)
VH: B1 VH with G107S
VL: B7 VL with T56V, A60V, P61S, I63V, M94Q, A96Q, F99Y, R101P, P102T
notes: Fab of Ab132
B15: Ab131 Fab (Fab, V domains shown)
VH: B1 VH with F27S, T28A, F51I, T52G, S54T, G56A, I101V
VL: B11 VL with M94Q
notes: Fab of Ab131
B16: Ab123 Fab (Fab, V domains shown)
VH: B5 VH
VL: B1 VL with F37Y, E55L, V56G, N58I, V60A, S61P, Q96A, T97L, Q98L, Y99N
notes: Fab of Ab123; also called Ab123 Fab fragment

Substitutions are numbered along the chain they refer to.

The first assay concerns the target T1, recombinant human latent myostatin (human, UniProt O14793 24-375, biotinylated (in the Octet pH assay only)).
T1 construct: also called biotinylated human latent myostatin
Kind of assay: BLI (Octet Red384): streptavidin biosensors loaded with biotinylated human latent myostatin, antibody association 300 s, dissociation in PBS at pH 7.4 or pH 5.5. Here is the method:
Binding was performed at pH 7.4 and dissociation at pH 5.5 in an Octet Red384@assay. Streptavidin biosensors were baselined in 1x kinetics buffer (KB) (Sartorius) for one minute, then loaded with 100 nM biotinylated human latent myostatin for five minutes, followed by another baseline step of one minute in 1x KB. Binding of test antibodies was performed for five minutes and then dissociation was performed in PBS at either pH 7.4 or pH 5.5 for five minutes. Analysis was performed using a partial fit, in which full dissociation was projected. Kd at pH 5.5 was divided by Kd at pH 7.4 to calculate pH sensitivity.
For orientation: BLI is a label-free optical method that tracks binding on a fibre tip over time.
With B1, the “fold difference in off-rate (Kd at pH 5.5 / Kd at pH 7.4)” value came out at 26 fold.
Still for that read-out and setting: for B2 the value was 7.9 fold.

For a further assay, the target named is human GDF-11 (human, UniProt O95390 299-407, limits assumed). Kind of assay: plate binding assay, OD 450 nm, one antibody concentration that is not given, on Hu-GDF-11 (method not described in the text).
human GDF-11, sequence (O95390 299-407 limits assumed): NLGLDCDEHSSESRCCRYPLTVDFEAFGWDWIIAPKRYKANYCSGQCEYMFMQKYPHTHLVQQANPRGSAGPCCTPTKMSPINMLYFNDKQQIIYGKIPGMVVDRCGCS
Take B3: the binding result is “no binding”.
On to B4, for which the binding result is on record as “no binding”.
Still for that read-out and setting: with B5 the entry was “no binding”.

In another assay the target is mouse GDF-11 (mouse, UniProt Q9Z1W4 297-405, limits assumed). Kind of assay: plate binding assay, OD 450 nm, one antibody concentration that is not given, on Mu-GDF-11 (method not described in the text).
mouse GDF-11, sequence (Q9Z1W4 297-405 limits assumed): as the sequence (O95390 299-407 limits assumed) above
With B3, the binding result is recorded as “no binding”.
Same read-out and setting: with B4 the entry was “no binding”; with B5, “no binding”.

In a further assay the target is T2, human pro-myostatin (human, UniProt O14793 24-375, biotinylated (in the SPR assay)).
T2 construct: Disulfide-linked homodimer; also called proGDF8 (human)
Kind of assay: SPR Biacore 8K, biotin-antigen captured.
On to B3, for which the Kd (commonly the equilibrium constant for the complex coming apart) amounted to 0.365 nM; the koff (as a rule, the first-order rate constant of dissociation) amounted to 0.000463 s⁻¹; the on-rate constant (kon) – broadly, the second-order rate constant of association – stood at 1.27e+06 M⁻¹ s⁻¹.
In turn, B4 had a Kd of 0.561 nM, a koff of 0.000122 s⁻¹ and a kon of 217000 M⁻¹ s⁻¹.
Turning to B6, binding was put at a Kd of 0.04 nM, the koff worked out at 0.000112 s⁻¹ and the association rate constant (kon) was found to be 2.79e+06 M⁻¹ s⁻¹.
On the same counts, the results for B2 are 0.11 nM, 0.000577 s⁻¹ and 5.27e+06 M⁻¹ s⁻¹.
Turning to B5, binding was put at a Kd of 0.394 nM, the koff is 0.000543 s⁻¹ and the kon is 1.38e+06 M⁻¹ s⁻¹.

The next assay concerns the target T3, cyno pro-myostatin (cynomolgus monkey, Biotinylated for capture in the SPR assay (site not stated). The native form is a disulfide-linked homodimer, partly furin-cleaved; one chain is given.).
T3 construct: also called proGDF8 (cynomolgus); cynomolgus monkey pro-myostatin
Put plainly: SPR Biacore 8K, biotin-antigen captured. (In general: Surface plasmon resonance follows binding to a sensor surface in real time, without labels.)
In turn, B3 had a Kd of 0.814 nM, a koff of 0.000736 s⁻¹ and a kon of 905000 M⁻¹ s⁻¹.
For B4, in that order: 0.601 nM, 0.000124 s⁻¹ and 207000 M⁻¹ s⁻¹.
For B6, in that order: 0.0369 nM, 0.000103 s⁻¹ and 2.8e+06 M⁻¹ s⁻¹.
For B5, in that order: 0.339 nM, 0.000539 s⁻¹ and 1.59e+06 M⁻¹ s⁻¹.

A further assay has as its target T4, murine pro-myostatin (mouse, UniProt O08689 25-376, biotinylated (in the SPR assay)).
T4 construct: also called proGDF8 (mouse); mouse pro-myostatin
Put plainly: SPR Biacore 8K, biotin-antigen captured.
B3: the Kd turned out to be 0.716 nM, the off-rate constant (koff) is 0.000655 s⁻¹ and the kon is 914000 M⁻¹ s⁻¹.
In the case of B4, the equilibrium dissociation constant (Kd) turned out to be 0.748 nM, the koff was 0.000188 s⁻¹ and the kon amounted to 251000 M⁻¹ s⁻¹.
B6: binding was put at a Kd of 0.0531 nM, the koff is 0.000156 s⁻¹ and the kon worked out at 2.93e+06 M⁻¹ s⁻¹.
For B5, in that order: 0.618 nM, 0.000772 s⁻¹ and 1.25e+06 M⁻¹ s⁻¹.

In a further assay the target is T1, recombinant human latent myostatin. Put plainly: cell-based or functional assay.
Take B3: the “IC50 (nM) Latent + mTLL2” value stood at 1.03 nM.
Still for that read-out and setting: for B4 the value was 9.22 nM; for B6, 0.139 nM; for B5, 0.139 nM.

Another assay has as its target T2, human pro-myostatin. Kind of assay: cell-based or functional assay.
On to B3, for which the “IC50 (nM) Pro + Furin” value was 0.774 nM.
Still for that read-out and setting: for B4 the value was 1.08 nM; for B5, 0.184 nM.

A further assay has as its target T2, human pro-myostatin. Put plainly: Fab KD, summary Table 11; method and antigen not stated there.
B7 yielded a Kd of 44.4 nM.
Consider B8, for which the Kd was 53.8 nM.
The same measure, in the same setting: with B9 the figure was 6.19 nM; with B10, 39.5 nM.
Same read-out and setting: for B11 the value was 21.9 nM.
Same read-out and setting: with B12 the figure was 19 nM.
Molecule B13 returned a dissociation constant (Kd) of 23 nM.
The same measure, in the same setting: with B14 the figure was 61.4 nM.
The same measure, in the same setting: with B15 the figure was 17.4 nM.
Consider B16, for which the Kd was 5.51 nM.

Another assay addresses T1, recombinant human latent myostatin. Kind of assay: cell-based or functional assay. The source holds these as a separate data set.
In the case of B4, the “mTLL2 IC50” value worked out at 9.22 nM.
The same measure, in the same setting: with B6 the figure was 0.139 nM; with B5, 0.139 nM.

The next assay has as its target T2, human pro-myostatin. Put plainly: Ab KD, summary Table 11; method and antigen not stated there.
In turn, B4 showed a Kd of 3.56 nM.
On the same count and under the same terms, with B6 the figure was 0.04 nM.
Still for that read-out and setting: for B5 the value was 0.683 nM.

Values taken from patent publication US20260209325A1 (SCHOLAR ROCK, published 2026).
